Experimental data from patent US20130123171A1 (INDIANA UNIVERSITY RESEARCH AND TECHNOLOGY CORPORA, published 2013).
Values joined by “and” are separate entries in the source; they are usually repeats but may differ in a detail not shown here. Identical values can stand only once. Positions of bridges follow the written chain, without caps; N, C: chain ends. Chains are numbered I, II in the order given. No end group written: not given here.

B1: IGF-1 A:B (H5D10Y16L17) DPI (peptide)
chain 1: GIVDECCFRSCDLRRLEMYCA-NH2
chain 2: GPEHLCGADLVDALYLVCGDRGFY-NH2
modifications: disulfide I:7-II:6 (inferred); not fully specified (bridges); ends not checked; also: C-terminal amide (chain not given here)
B2: IGF-1 A:In (1-17)-IGF-1 B (18-30) (peptide)
chain 1: GIVDECCFRSCDLRRLEMYCA-NH2
chain 2: FVNQHLCGSHLVEALYLVCGDRGFYFNKPT-NH2
modifications: disulfide I:7-II:7 (inferred); not fully specified (bridges); ends not checked; also: C-terminal amide (chain not given here)
notes: my derivation
B3: IGF-1 A:In B(1-5)-IGF-1 B(YL) (6-30) (peptide)
A chain: GIVDECCFRSCDLRRLEMYCA-NH2
B chain: FVNQHLCGAELVDALYLVCGDRGFYFNKPT-NH2
modifications: disulfide I:6-I:11, I:20-II:19, I:7-II:7; also: disulfides as in insulin
notes: my derivation
B4: IGF-1 A:B(E10Y16L17) (peptide)
A chain: GIVDECCFRSCDLRRLEMYCA-NH2
B chain: GPETLCGAELVDALYLVCGDRGFYFNKPT-NH2
modifications: disulfide I:7-II:6 (inferred); not fully specified (bridges); cysteine pairing not given here
notes: A chain, then B chain
B5: IGF-1 A:IGF-1 B(1-8)-In (9-17)-IGF-1 B (18-30) (peptide)
chain 1: GIVDECCFRSCDLRRLEMYCA-NH2
chain 2: GPETLCGSHLVEALYLVCGDRGFYFNKPT-NH2
modifications: disulfide I:7-II:6 (inferred); not fully specified (bridges); ends not checked; also: C-terminal amide (chain not given here)
notes: my derivation
B6: IGF-1 A (H8 A9 N21):B (H5D10Y16L17 A22) DPI A-COOH (peptide)
chain 1: GIVDECCHASCDLRRLEMYCN-OH
chain 2: GPEHLCGADLVDALYLVCGDAGFY-NH2
modifications: ends and bridges not checked
B7: IGF1 (Y^B16L^B17) (peptide)
A chain: GIVDECCFRSCDLRRLEMYCA
B chain: GPETLCGAELVDALYLVCGDRGFYFNKPT
modifications: disulfide I:7-II:6 (inferred); not fully specified (C-terminus, bridges); cysteine pairing not given here
notes: A chain, then B chain, two chain heteroduplex; also called IGF1(YL)^B16B17 analog; IGF1 A:B(Y^B16L^B17)
B8: IGF-1 A:B (peptide)
chain 1: GIVDECCFRSCDLRRLEMYCA-NH2
chain 2: GPETLCGAELVDALQFVCGDRGFYFNKPT-NH2
modifications: disulfide I:7-II:6 (inferred); not fully specified (bridges); ends not checked; also: C-terminal amide (chain not given here)
notes: Two chain heteroduplex of the native IGF-1 A and B chains
B9: IGF-1 A:B (E10Y16L17) DPI (peptide)
A chain: GIVDECCFRSCDLRRLEMYCA-NH2
B chain: GPETLCGAELVDALYLVCGDRGFY-NH2
modifications: disulfide I:7-II:6 (inferred); not fully specified (bridges); cysteine pairing not given here
notes: A chain, then B chain; DPI as in m25

Legend:
[1] = biological target: insulin receptor, A subtype (UniProt P06213); assay: cell-based or functional assay
[2] = biological target: insulin receptor, B subtype (UniProt P06213); assay: cell-based or functional assay
human insulin receptor [3] = biological target: T1, human insulin receptor (human, UniProt P06213 28-1382); assay: SPA competition vs 125I-insulin, human IR membranes (Example 3)
T1 construct: whole, on cells
Method: (§1) Non-specifically bound (NSB) radioactivity was measured in the wells with a four-fold concentration excess of “cold” native ligand than the highest concentration in test samples. Total bound radioactivity was detected in the wells with no competitor. Percent specific binding was calculated as following: % Specific Binding=(Bound-NSB/Total bound-NSB)×100.

[4] = biological target: human insulin receptor (human) (UniProt P06213); assay: cell-based or functional assay
human IGF-1 receptor [5] = biological target: T2, human IGF-1 receptor (human, UniProt P08069 31-1367); assay: cell-based or functional assay
T2 construct: whole, on cells

human insulin receptor [6] = biological target: T1, human insulin receptor; assay: cell-based or functional assay
human IGF-1 receptor [7] = biological target: T2, human IGF-1 receptor; assay: SPA competition vs 125I-IGF-1, human IGF-1R membranes (Example 3)
Method: as §1

[8] = biological target: human insulin receptor (human) (UniProt P06213); assay: SPA competition vs 125I-insulin, human IR membranes (Example 3)
human insulin receptor [9] = biological target: T1, human insulin receptor; assay: in vitro insulin receptor binding assay after 95 hr in 20% plasma/PBS at 37 C, relative to native insulin
human insulin receptor [10] = biological target: T1, human insulin receptor; assay: in vitro insulin receptor binding assay after 9 hr in 20% plasma/PBS at 37 C, relative to native insulin
human insulin receptor [11] = biological target: T1, human insulin receptor; assay: in vitro insulin receptor binding assay after 0 hr in 20% plasma/PBS at 37 C, relative to native insulin

Molecule | IC50 (human insulin receptor [3]) | % IGF-1 (in test) (human IGF-1 receptor [7]) | % native IGF-1 activity (0.55 nM) (human IGF-1 receptor [7]) | IC50 (human IGF-1 receptor [7]) | also measured
B^1Aoa2(H5, H10,Y16,L17)25a: A^1(pNH2-F19, N18, N21) (peptide) |  |  |  |  | % (of insulin), in vitro phosphorylation assay, IR-A [1]: 81%; % (of insulin), in vitro phosphorylation assay, IR-B [2]: 48%
B^1PEG-Aoa2(H5, H10,Y16,L17)25a: A^1(pNH2-F19, N18, N21), N-terminal 20 kDa PEG, no dipeptide at A19 |  |  |  |  | % (of insulin), in vitro phosphorylation assay, IR-A [1]: 18%; % (of insulin), in vitro phosphorylation assay, IR-B [2]: 6.5%
B^1PEGAoa2(H5, H10,Y16,L17)25a: A^1(dLys(rE-C14),Nleu-aF19, N18, N21) (peptide) |  |  |  |  | % (of insulin), in vitro phosphorylation assay, IR-A, prodrug after 78 h in PBS at 37 C [1]: 8.3%; % (of insulin), in vitro phosphorylation assay, IR-A, prodrug at 0 h [1]: 1.1%; % (of insulin), in vitro phosphorylation assay, IR-B, prodrug after 78 h in PBS at 37 C [2]: 6.3%; % (of insulin), in vitro phosphorylation assay, IR-B, prodrug at 0 h [2]: 1.2%
IGF1 A:B(Y^B16L^B17)(p-NH2-F)^A19amide (peptide) | 1.08 nM |  |  |  | % of Insulin Activity (human insulin receptor [3]): 22%
IGF1(Y^B16L^B17)(AlaPro)^A-1,0 (peptide) | 1.93 nM |  |  |  | % of Insulin Activity (human insulin receptor [3]): 37.1%
IGF-1 A (H8 A9 N21):B (H5D10Y16L17 A22) DPI A-COOH (peptide) |  |  |  |  | % Insulin, total phosphorylation, Insulin Receptor [4]: 360% and 614%
IGF-1 A (H8 A9 N21):B (H5D10Y16L17) DPI A-COOH (peptide) | 0.05 nM and 0.09 nM | 12.9% | 13.6% | 4.03 nM | % IGF, total phosphorylation, IGF-1 Receptor (human IGF-1 receptor [5]): 181%; % Insulin, total phosphorylation, Insulin Receptor (human insulin receptor [6]): 840% and 1080%; % insulin (in test) (human insulin receptor [3]): 1580% and 1670%
IGF-1 A:B (H5D10Y16L17) (S═O)DPI (peptide) |  |  |  |  | % insulin (in test) [8]: 316%; IC50 [8]: 0.25 nM
IGF-1 A:B (H5D10Y16L17) DPI (peptide) |  |  |  |  | % insulin (in test) [8]: 479%; IC50 [8]: 0.16 nM
IGF-1 A:B(D10Y16L17) DPI A-COOH (peptide) | 0.26 nM and 0.2 nM and 0.42 nM | 7.7% | 8.1% | 6.79 nM | % IGF, total phosphorylation, IGF-1 Receptor (human IGF-1 receptor [5]): 112%; % Insulin, total phosphorylation, Insulin Receptor (human insulin receptor [6]): 1580%; % insulin (in test) (human insulin receptor [3]): 301% and 380% and 174%; % native insulin activity (0.6 nM) (human insulin receptor [3]): 231% and 300% and 144%
IGF-1 A:B(E10 Y16L17)-E31E32B-COOH (peptide) |  | 3% | 3.1% | 17.5 nM | % Insulin, total phosphorylation, Insulin Receptor (human insulin receptor [6]): 18.1% and 31.7%
In A:IGF-1 B(YL) (peptide) | 82.6 nM and 107 nM |  |  |  | % insulin (in test) (human insulin receptor [3]): 0.9% and 0.7%; % native insulin activity (0.6 nM) (human insulin receptor [3]): 0.7% and 0.6%
MIU-30a: B^1(Y16,L17,Y25)29a: A^1(dLys(Ac),Sar-aF19) (peptide) |  |  |  |  | % Activity of Insulin, in vitro phosphorylation assay, after 1 hr in 20% plasma (human insulin receptor [6]): 23%; % Activity of Insulin, in vitro phosphorylation assay, after 3 hr in 20% plasma (human insulin receptor [6]): 26.8%; % Activity of Insulin, in vitro phosphorylation assay, after 6 hr in 20% plasma (human insulin receptor [6]): 32.5%; % Activity of Insulin, in vitro phosphorylation assay, after 9 hr in 20% plasma (human insulin receptor [6]): 41.1%; % Activity of Insulin, in vitro phosphorylation assay, after 10.5 hr in 20% plasma (human insulin receptor [6]): 43.2%; % Activity of Insulin (human insulin receptor [9]): 115%; % Activity of Insulin (human insulin receptor [10]): 100%; % Activity of Insulin (human insulin receptor [11]): 34.4%
B1 |  | 11.2% | 11.8% | 4.66 nM | 
B2 | 2.77 nM and 2.67 nM and 2.48 nM | 0.9% | 0.9% | 62.5 nM | 
B3 |  | 3.6% | 2% | 27.5 nM | 
B4 | 0.66 nM and 0.51 nM |  |  | 7.85 nM and 12.2 nM | 
B5 | 1.59 nM | 0.3% | 0.4% | 131 nM | % insulin (in test) (human insulin receptor [3]): 19.1%; % native insulin activity (0.6 nM) (human insulin receptor [3]): 37.7%
B6 |  | 2.3% | 2.4% | 22.8 nM | 
B7 | 0.51 nM |  |  |  | 
B8 | 10.4 nM |  |  |  | % insulin (in test) (human insulin receptor [3]): 5.8%; % native insulin activity (0.6 nM) (human insulin receptor [3]): 5.8%
B9 |  | 3.3% | 2.4% | 22.9 nM | 
